This note sets out measurements from the nanobody polyreactivity screen of Harvey et al. (2022).

This data set can be described thus: yeast display, Sf9 membrane polyspecificity reagent, FACS + sequencing; frameworks hold sequencing errors. In outline:
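Synthetic nanobody libraries on Saccharomyces cerevisiae BJ5465 were galactose-induced for 36–48 hours, stained 1 hour at 4 °C with 10% biotinylated, detergent-solubilized Sf9 membrane reagent and enriched on streptavidin microbeads. FACS then separated cells into low and high (top ~1%) gates by anti-HA (expression) and streptavidin (reagent binding) fluorescence. Genes were colony-PCR amplified, MiSeq 2 × 250 sequenced and CDR-length filtered. A clone's polyreactivity label is that of its gate of origin.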
As to “QVQLVESGGGLVQAGGSLRLSCAASGGILRGYAMGWYRQAPGKERELVAAISRGGRTNYADSVKGRFTISRDNAKNTVYLQMNSLKPEDTAVYYCTALSAFQVDNYDYWGQGTQVTVSS”, the “polyreactivity (PSR sort gate)” value is recorded as “high polyreactivity”.

For the sequence “QVQLVESGGGLVQAGGSLRLSCAASGGILSDYAMGWYRQAPGKERELVAAITISGGRTNYADSVKGRITISRDNAKITVYLQMNSLKPEDTAVSYCNKLPWSVRVYKPYDYWGEGTQVTVSS”, the “polyreactivity (PSR sort gate)” value is on record as “low polyreactivity”.

As for “QVQLVESGGGLVQAGGSLRLSCAASGGILVGYDMGWYRQAPGKERELVAAINYSGGSTNYADSVKGRFTISRDNAKNTVYLQMNSLKTEDTALYYCAARSTARYGYWGQGTQVTVSS”, the “polyreactivity (PSR sort gate)” value is on record as “low polyreactivity”.

Turning to “QVQLVESGGGLVQAGGSLRLSCAASGGISLRYAMGWYRQAPGKERELVAVIDFSGASTYYADSVKGRFTISRDNAKNTVYLQMNSLKPEDTAVYYCAADSHYQDDFRIQYDYWGQGTQVTVSS”, the “polyreactivity (PSR sort gate)” value is “low polyreactivity”.

As to “QVQLVESGGGLVQAGGSLRLSCAASGGIVRSNAMGWYRQAPGKERELVAAINRSVRTYYADSVKGRFTISRDNEKNTVYLQMNSLKPEDTAVYYCAAQQGVISRGNYWGQGTQVTVSA”, the “polyreactivity (PSR sort gate)” value is listed as “low polyreactivity”.

For “QVQLVESGGGLVQAGGSLRLSCAASGGLFSVYAMGWYRQAPGKERELVASITVSGGSTSYADSVKGRFTISRDNAKNTVYLQMYSLKPEDTAVYYCNTDFAQAHTLSWYEDMDYWGQGTQVTVSS”, the “polyreactivity (PSR sort gate)” value is reported as “low polyreactivity”.

In the case of “QVQLVESGGGLVQAGGSLRLSCAASGGMGWYRQAPGKERELVATISSVGSTNYADSVKGRFTISRDNAKNTVYLQMNRLKPEDTAVYYCNATGVQYFLYGYWGQGTQVTVSS”, the “polyreactivity (PSR sort gate)” value is “low polyreactivity”.

Take “QVQLVESGGGLVQAGGSLRLSCAASGGMGWYRQAPGKERELVATISSVGSTNYADSVKGRFTISRDNAKNTVYLQMNSLKPEDTAVYYCIATGVQYFLYGYWGQGTQVTVSS”: the “polyreactivity (PSR sort gate)” value is recorded as “low polyreactivity”.

As to “QVQLVESGGGLVQAGGSLRLSCAASGGNFWYNTMGWYRQAPWKERELVAAISDSGGRTSYADSVKGRVTISRDNANHTVYLQMNSLKPEDTAVYYCNVDYVVSRGFIYRVDYWGQGTQVTVSS”, the “polyreactivity (PSR sort gate)” value is “low polyreactivity”.

As to “QVQLVESGGGLVQAGGSLRLSCAASGGSFYPYAMGWYRQAPGKERELLAAISWSGDITYYADSVKGRFTISRDNAKNTVYLLINSLKPEDTAVYYCAAGRVVDKDPSYFREGDYWGQGTQVTVSS”, the “polyreactivity (PSR sort gate)” value was “low polyreactivity”.

For the sequence “QVQLVESGGGLVQAGGSLRLSCAASGGTCWWYAMGWYRQAPGKEREFVAAISQRGTSTYYADSVKGRFTISRDNAKNTVYLQMNSLKPEDTAVYYCAVRAYRWRSTLGLYYWGQGTQVTVSS”, the “polyreactivity (PSR sort gate)” value is on record as “high polyreactivity”.

For the sequence “QVQLVESGGGLVQAGGSLRLSCAASGGTFALNAMGWYRQAPGKERELVADIDGRGGSTYYADSVKGRFTISRDNAKNTVYLQMNSLKPEVTAVYYCAARAPFLSVPSELDYWGQGTQVTVSS”, the “polyreactivity (PSR sort gate)” value is recorded as “low polyreactivity”.

On to “QVQLVESGGGLVQAGGSLRLSCAASGGTFAQYVMGWYRQAPGKERELVAAISRTGGRTYYADSVKGRFTISRDNAKNTVYLQMNSLKPEDTAVYYCARVYTSYGTPWTNYDYWGQGTQVTVSS”, for which the “polyreactivity (PSR sort gate)” value is listed as “high polyreactivity”.

“QVQLVESGGGLVQAGGSLRLSCAASGGTFARNALGWYRQAPGKERELVAAIRGGVSTNYADSVKGRFTISRDNAKNTVYLQMNSLKPEDTAVYYCNASPPTLEGYWGQGTQVTVSS”: the “polyreactivity (PSR sort gate)” value is recorded as “low polyreactivity”.

As to “QVQLVESGGGLVQAGGSLRLSCAASGGTFDTYDMGWYRQAPGKERELVAAIRFGDGTTYYADSVKGRFTISRDNAKNTVYLQMNSLKPEDTAVYYCNTDDPGNYWYAEYDYWGQGTQVTVSS”, the “polyreactivity (PSR sort gate)” value is “low polyreactivity”.

With “QVQLVESGGGLVQAGGSLRLSCAASGGTFEFYTMGGYRQAPGKERELVAVINASGDSTYYADSVKGRFTISRDNAKNTVYLQMNSLKPEYTAVYYCAADHRGEYDYWGQGTQVNVSS”, the “polyreactivity (PSR sort gate)” value is “low polyreactivity”.

Take “QVQLVESGGGLVQAGGSLRLSCAASGGTFEFYTMGWYRQAPGKERELVAVINASGDSTYYADSVKGRFTISRDNAKNTVYLQMNSLKPEDTAVYYCAADHRGEYDYWGQGTQVTVSS”: the “polyreactivity (PSR sort gate)” value is given as “low polyreactivity”.

“QVQLVESGGGLVQAGGSLRLSCAASGGTFENYAMGWYRQPPGKERELVAAISSGGSTNYADSVKGRFTISRDNAKNTVYLQMNSLKQEDTAVYYCARYRVWGSTGHKLFHDDYWGQGTQVTVSS”: the “polyreactivity (PSR sort gate)” value is reported as “low polyreactivity”.

For the sequence “QVQLVESGGGLVQAGGSLRLSCAASGGTFFAYAMGWYRQAPGERELVAAISWSGDSTYYADSVKGRFTISRDNAKNTVYLQMNSLKPEDTAVYYCAADYGFEYYYWGQGTQVTVSS”, the “polyreactivity (PSR sort gate)” value is recorded as “high polyreactivity”.

For the sequence “QVQLVESGGGLVQAGGSLRLSCAASGGTFFGYAMGWYRQAPGKERELVAAIRWSDGRTYYADSVKGRFTISRDNAKNTVYLQMNSLKPEDTAVYDCNADDARLFDYWGQGTQVTVSS”, the “polyreactivity (PSR sort gate)” value is reported as “low polyreactivity”.

With “QVQLVESGGGLVQAGGSLRLSCAASGGTFGFNAMGWYRPAPGKERELVAAISSSGGRTYYADSVNGRFTISRDNAKNNVYLQMMSLKEEDTAVYYCAARVQVGGRSYVGYYYWGKGTQVTVSS”, the “polyreactivity (PSR sort gate)” value is listed as “high polyreactivity”.

For the sequence “QVQLVESGGGLVQAGGSLRLSCAASGGTFGFYAMGWYRQAPGKERELVAAISWSGVGTYYADSVKGRFTISRDNAKNTVYLQMNSLKPEATAVYYCAAKQYTQKISSPGTILRYYYWGQGTQVTVSS”, the “polyreactivity (PSR sort gate)” value was “high polyreactivity”.

“QVQLVESGGGLVQAGGSLRLSCAASGGTFGSNAMGWYRQAPGKERELVARISGRGGRTYYADSVKGRFTISRDNAKNTVYLQMNSLKPEDTAVYYCAATYIIWGQGTQVNVSS”: the “polyreactivity (PSR sort gate)” value is recorded as “high polyreactivity”.

In the case of “QVQLVESGGGLVQAGGSLRLSCAASGGTFGSNTMGWYRQAPGKERELVAAITSGVSTNYADSVKGRFTISRDNAKNTVYLQMNSLKPEDTAVYYCAKDLWSEEYETIITSYGFDYWGQGTQVTVSS”, the “polyreactivity (PSR sort gate)” value was “low polyreactivity”.

For the sequence “QVQLVESGGGLVQAGGSLRLSCAASGGTFGSYAMGWYRQAPGKERELVAGITGSGGITKYADSVKGRFTISRDNAKNTVYLQMNSLKPEDTAVYYCNADYSVWYIRLSAYFTYDYWGQGTQVTVSS”, the “polyreactivity (PSR sort gate)” value is given as “high polyreactivity”.

For “QVQLVESGGGLVQAGGSLRLSCAASGGTFGYYAMGWYIQAPGTERELVAAISWSGGSTYYADSVKGRFTISRDNAKNTVYLQMNSLKAEDTAVYYCNAVTRFGYVKFDYWGQGTQVTVSS”, the “polyreactivity (PSR sort gate)” value is reported as “high polyreactivity”.

As to “QVQLVESGGGLVQAGGSLRLSCAASGGTFGYYTMGWYRPAPGKERELVSAISSGGGTDYADSVKGRFTISRDNAKNTVYLQMNSLKPEDTAVYYCNAKWLEWHYVFLPSYTMDYWGQGTQVTVSS”, the “polyreactivity (PSR sort gate)” value was “low polyreactivity”.

On to “QVQLVESGGGLVQAGGSLRLSCAASGGTFIRYAMGWYRQAPGKERELVAAISSSGGSTYYADSVKGRFTISRDNAKNTVYLQMNSLKPEDTAVYYCNGRQSRFKYDYWGQGTQVTVSS”, for which the “polyreactivity (PSR sort gate)” value is reported as “high polyreactivity”.

“QVQLVESGGGLVQAGGSLRLSCAASGGTFISYAMGWYRQAPGKERELVAAISRGGSSTYYADSVKGRFTISRDNAKNTVYLQMNSLKPEDTAVYYCNKAYHRRDSEFGYWGQGTQVTVSS”: the “polyreactivity (PSR sort gate)” value is on record as “high polyreactivity”.

“QVQLVESGGGLVQAGGSLRLSCAASGGTFKYYTMGWYRQAPGKERELVAAISSGGITYYADSVKGRFTISRDNAKNTVYLQMNSLKPEDTAVYYCNVVSYYIAGGWYEGDYWGQGTQVTVSS”: the “polyreactivity (PSR sort gate)” value is “low polyreactivity”.

For “QVQLVESGGGLVQAGGSLRLSCAASGGTFLGNAMGWYRQAPGKERELVADITSGGSTNYADSVKGRFTISRDNAKNTVYLQMNSLKPEDTAVDYCNAEYSTSTVWEYDYWGQGTQVTVSS”, the “polyreactivity (PSR sort gate)” value is on record as “low polyreactivity”.

For the sequence “QVQLVESGGGLVQAGGSLRLSCAASGGTFLPNAMGWYRQAPWKERELVAAITSGGRTNYADSVKGRFTISRDNAKNTVYFQMNSLKPEDTAVYYCAARVRGYPTRPIPYYYWGQGTQVTVSS”, the “polyreactivity (PSR sort gate)” value is “high polyreactivity”.

For the sequence “QVQLVESGGGLVQAGGSLRLSCAASGGTFNHYAMGWYRQAPGKERELVSSITNGASTYYADSVKGRFTISRDNAKNTVYLQMNSLKPEDTAVYYCAARTAVGPIRSYWYDYWGQGTQVTVSS”, the “polyreactivity (PSR sort gate)” value is reported as “low polyreactivity”.

Take “QVQLVESGGGLVQAGGSLRLSCAASGGTFNRYAMGWYRQAPGKERELVAAISNGGGRTYYADSVKGRFTISRDNAKNTVYLQMNSLKPEDTAVYYCAKDLTRTSYRSAFDYWGQGTQVTVSS”: the “polyreactivity (PSR sort gate)” value was “high polyreactivity”.

“QVQLVESGGGLVQAGGSLRLSCAASGGTFNSNAMGWYRQAPGKEREFVAAISSSGGSTYYADSVKGRFTISRDNAKNTVYLQMNSLKPEDTAVYYCAKRYPYPNGRFRFGYWGQGTQVTVSS”: the “polyreactivity (PSR sort gate)” value is “high polyreactivity”.

On to “QVQLVESGGGLVQAGGSLRLSCAASGGTFNSNAMGWYRQAPGKERELVAGITSGSDTSYADSVKGRFTISRDNAKNTVYLQMNSLKPEDSAVYYCATRDYPLYGYWGQGTQVTVSS”, for which the “polyreactivity (PSR sort gate)” value is on record as “low polyreactivity”.

Regarding “QVQLVESGGGLVQAGGSLRLSCAASGGTFPTNAMGWYRQATGKERELVAAITSSGVRTYYADSVKGRFTISRDNAKNTVYLQLNSLKPEDTAVYYCKAVTRYVRLTDDDYWGQGTQVTVSS”, the “polyreactivity (PSR sort gate)” value is “high polyreactivity”.

Regarding “QVQLVESGGGLVQAGGSLRLSCAASGGTFPYYAMGWYRQAPGKERELVADISGTDGSTYYADSVKGRFTISRDNAKNTVYLQMNSLKPEDTAVYYCAAEEVSWNGTGDYWGQGTQVTVSS”, the “polyreactivity (PSR sort gate)” value is recorded as “high polyreactivity”.

Take “QVQLVESGGGLVQAGGSLRLSCAASGGTFQINAMGWYIQAPGKERELVAAISRSGGSTSYADSVKGRFTISRDNAKNTVYLQMNSLKPQDTAVYYCNKRVRATAWYDYWGQGTQVTVSS”: the “polyreactivity (PSR sort gate)” value is given as “high polyreactivity”.

As to “QVQLVESGGGLVQAGGSLRLSCAASGGTFRAYVMGWYRQAPGKERELVAAISRSGTRTYYADSVKGRFTISRDNAKNTVYLQMNSLKPEDTAVYYCAAQAGVYYDYEYWGQGTLVTVSS”, the “polyreactivity (PSR sort gate)” value is reported as “high polyreactivity”.

Regarding “QVQLVESGGGLVQAGGSLRLSCAASGGTFRKYTMGWYRQAPGKERELVAAISSTGSSTYYADSVKGRFTISRDNAKNTVYLQMNSLKPEDTAVYYCAADVFSGYYWPVLEDHWGQGTQVTVSS”, the “polyreactivity (PSR sort gate)” value is “high polyreactivity”.
